According to PMC11764377:

Columns and labels:
[1] = target: Allochromatium tepidum LH1 α1β1 heterodimer subunit (of the Ca2+-bound LH1-α1β1 complex) (Allochromatium tepidum); assay: cryo-EM structure; LH1-only complex co-expressed in Rsp. rubrum H2 and purified in β-DDM, ~5 mg/mL; C14 symmetry applied; closed ring of 14 αβ-heterodimers
[2] = target: Allochromatium tepidum LH1 α2β1 heterodimer subunit (of the Ca2+-free LH1-α2β1 complex) (Allochromatium tepidum); assay: as above

stoichiometry N [1] | stoichiometry N [2] | Substance
14 | – | Allochromatium tepidum LH1 α1β1 heterodimer subunit (of the Ca2+-bound LH1-α1β1 complex)
– | 14 | Allochromatium tepidum LH1 α2β1 heterodimer subunit (of the Ca2+-free LH1-α2β1 complex)
